# Laboratory results as given in paper PMC4894640, “RAB-10 Promotes EHBP-1 Bridging of Filamentous Actin and Tubular Recycling Endosomes” (PLoS Genetics, 2016).
# B1: GST-EHBP-1(260-510aa) (domain or fragment, C. elegans, UniProt G5ECW3 260-510, looked up)
# chain: APAPIATNRHSRSSRASTEEKASTTIEFRVDSNSRHVPVTAIATPYYLQSGTMSRGRSNSPRAPSRDAVPQPIDGETLLSWCQRVTNGYSHVKVNDFMKSWNNGLALCAVLHSYRPDLIGDYETLDISNNMSGRISNIQRALDSLTLIGITEVPTVDMFLTPDRKQIEFLLQHLRRIFEGFDEGSTPASASDHRISRTFGINESEEKVVAMITEIRNQKDLEEAVDYRHIPDEVPVTPQLASRNPALNQPT
# notes: C. elegans EHBP-1, central calponin homology (CH) domain, residues 260-510; Cloned into pGEX-2T modified with a Gateway cassette; also called GST-CH; GST-EHBP-1-CH (aa260-510); source: E. coli ArcticExpress, purified (glutathione-Sepharose 4B, eluted with glutathione); held on glutathione beads for the pull-down
# Target: F-actin (polymerized non-muscle actin) (UniProt P60709 1-375)
# Test: co-sedimentation; GST fusion protein incubated with 40 ul freshly polymerized non-muscle actin (21 uM F-actin) or F-actin buffer alone, 30 min at room temperature, 150,000 x g 1.5 h at 24 C; supernatant and pellet on SDS-PAGE, coomassie or western blot, densitometry
# Details: both partners purified
binder,measurement,value
B1,P/S ratio (pellet/supernatant) with actin filaments,~80%
